Data reported in PMC11429718.

What was measured:
[1] = molecular target: 329 SOSIP.v8.2 Env trimer (HIV-1 clade C (isolate 329.14.B1)); experiment: negative-stain electron microscopy
[2] = molecular target: 329 SOSIP.v8.2 Env trimer (HIV-1 clade C (isolate 329.14.B1)); experiment: native gel or EMSA

329 SOSIP.v8.2 Env trimer (complex)
stoichiometry N [1]: 3
stoichiometry N [2]: 3
